# Data reported in US20250084155A1 (University of Texas, published 2025).
# Molecular target: T1, HSP70 (human HSP70; the antigen of the binning, humanization and variant binding assays) (human, UniProt P0DMV8 1-641, limits assumed)
# T1 construct: also called hu HSP70
# Assay: BLI, anti-human Fc capture, antigen 100 nM
# Description: Binding assays were performed as follows. Antibody variants were immobilized using anti-human Fc onto the surface of a series of biosensors at […]. Antigen, at 100 nM, was passed over the surface to generate a binding response. Binding data for the antibody:antigen interactions were collected at 25° C. on the biosensors. In Table 14, X=610 represents captured antigen value (nM) at the beginning of the dissociation phase (measured at 610 seconds after the biosensor was initially contacted with antigen) and X=1495 represents captured antigen value (nM) at the end of the dissociation phase (measured at 1495 seconds after the biosensor was initially contacted with antigen). In Table 14, antibodies with an X=610 value greater than 0.2 and a % dissociation less than 10% are shown in bold.
# T1 sequence (P0DMV8 whole entry, change not shown): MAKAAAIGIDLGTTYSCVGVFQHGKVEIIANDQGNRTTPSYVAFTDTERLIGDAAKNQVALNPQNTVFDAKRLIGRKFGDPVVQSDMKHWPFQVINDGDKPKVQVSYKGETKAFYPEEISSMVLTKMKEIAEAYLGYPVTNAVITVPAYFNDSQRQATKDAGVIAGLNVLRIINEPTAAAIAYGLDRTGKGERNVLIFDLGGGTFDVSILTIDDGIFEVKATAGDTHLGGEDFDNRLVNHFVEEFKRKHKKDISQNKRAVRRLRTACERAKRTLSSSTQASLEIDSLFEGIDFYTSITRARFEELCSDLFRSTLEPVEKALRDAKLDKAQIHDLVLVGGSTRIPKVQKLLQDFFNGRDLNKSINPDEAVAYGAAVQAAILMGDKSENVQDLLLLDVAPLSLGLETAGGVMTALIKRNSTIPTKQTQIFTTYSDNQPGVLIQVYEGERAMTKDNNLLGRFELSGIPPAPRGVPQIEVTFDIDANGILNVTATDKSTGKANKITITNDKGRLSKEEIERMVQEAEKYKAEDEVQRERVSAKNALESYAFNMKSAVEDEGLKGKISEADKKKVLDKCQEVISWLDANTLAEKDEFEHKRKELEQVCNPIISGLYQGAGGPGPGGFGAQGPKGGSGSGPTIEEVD
row,Binder,% Diss [%]
1,"h77A-1.2 (antibody, V domains shown, captured by anti-human Fc) VH: QIQLVQSGAEVKKPGASVKVSCKASGYTFTNYGMNWVRQAPGQGLEWMGWINTYTGEPRYADDFKGRFTFTTDTSTSTAYMELRSLRSDDTAVYFCARYDHAMDYWGQGTLVTVSS VL: EIVLTQSPDSLAVSLGERATINCKSSQSLLNSGTRKNYLAWYQQKAGQSPKLLIYWTSTRESGVPDRFSGSGSGTDFTLTIDSLQAEDVAVYYCKQSYTLYTFGGGTKVEIK",-1.81
2,"h77A-1.11 (antibody, V domains shown, captured by anti-human Fc) VH: QIQLVQSGAEVKKPGASVKVSCKASGYTFTNYGMNWVRQAPGQGLEWMGWINTYTGEPTYADDFKGRFTFTTDTSTSTAYMELRSLRSDDTAVYFCARYDHAMDYWGQGTLVTVSS VL: EIVLTQSPDSLAVSLGERATINCKSSQSLLNSGTRKNYLAWYQQKPGQSPKLLIYWTSTRESGVPDRFSGSGSGTDFTLTIDSLQAEDVAVYYCKQSYTLYTFGGGTKVEIK",10.7
3,"h77A-1.4 (antibody, V domains shown, captured by anti-human Fc) VH: QIQLVQSGAEVKKPGASVKVSCKASGYTFTNYGMNWVRQAPGQGLEWMGWINTYTGEPIYADDFKGRFTFTTDTSTSTAYMELRSLRSDDTAVYFCARYDHAMDYWGQGTLVTVSS VL: EIVLTQSPDSLAVSLGERATINCKSSQSLLNSGTRKNYLAWYQQKAGQSPKLLIYWTSTRESGVPDRFSGSGSGTDFTLTIDSLQAEDVAVYYCKQSYTLYTFGGGTKVEIK",31.8
4,"h77A-1.13 (antibody, V domains shown, captured by anti-human Fc) VH: QIQLVQSGAEVKKPGASVKVSCKASGYTFTNYGMNWVRQAPGQGLEWMGWINTYTGEPTYADDFKGRFTFTTDTSTSTAYMELRSLRSDDTAVYFCARYDHPMDYWGQGTLVTVSS VL: EIVLTQSPDSLAVSLGERATINCKSSQSLLNSGTRKNYLAWYQQKAGQSPKLLIYWTSTRESGVPDRFSGSGSGTDFTLTIDSLQAEDVAVYYCKQSYTLYTFGGGTKVEIK",13.4
5,"h77A-1.7 (antibody, V domains shown, captured by anti-human Fc) VH: QIQLVQSGAEVKKPGASVKVSCKASGYTFTNYGMNWVRQAPGQGLEWMGWINTYTGEPTYADDFKGRFTFTTDTSTSTAYMELRSLRSDDTAVYFCARYDHFMDYWGQGTLVTVSS VL: EIVLTQSPDSLAVSLGERATINCKSSQSLLNSGTRKNYLAWYQQKAGQSPKLLIYWTSTRESGVPDRFSGSGSGTDFTLTIDSLQAEDVAVYYCKQSYTLYTFGGGTKVEIK",30.2
6,"h77A-1.9 (antibody, V domains shown, captured by anti-human Fc) VH: QIQLVQSGAEVKKPGASVKVSCKASGYTFTNYGMNWVRQAPGQGLEWMGWINTYTGEPTYADDFKGRFTFTTDTSTSTAYMELRSLRSDDTAVYFCARYDHTMDYWGQGTLVTVSS VL: EIVLTQSPDSLAVSLGERATINCKSSQSLLNSGTRKNYLAWYQQKAGQSPKLLIYWTSTRESGVPDRFSGSGSGTDFTLTIDSLQAEDVAVYYCKQSYTLYTFGGGTKVEIK",18.3
7,"h77A-1.5 (antibody, V domains shown, captured by anti-human Fc) VH: QIQLVQSGAEVKKPGASVKVSCKASGYTFTNYGMNWVRQAPGQGLEWMGWINTYTGEPTYADDFKGRFTFTTDTSTSTAYMELRSLRSDDTAVYFCARYDHAMDYWGQGTLVTVSS VL: EIVLTQSPDSLAVSLGERATINCKSSQSLLNSGTRKNYLAWYQQKAGQSPKLLIYWTSTRESGVPDRFSGSGSGTDFTLTIDSLQAEDVAVYYCKQSYNLYTFGGGTKVEIK",25.3
8,"h77A-1.24 (antibody, V domains shown, captured by anti-human Fc) VH: QIQLVQSGAEVKKPGASVKVSCKASGYTFTNYGMNWVRQAPGQGLEWMGWINTYTGEPTYADDFKGRFTFTTDTSTSTAYMELRSLRSDDTAVYFCARYDHRMDYWGQGTLVTVSS VL: EIVLTQSPDSLAVSLGERATINCKSSQSLLNSGTRKNYLTWYQQKAGQSPKLLIYWTSTRESGVPDRFSGSGSGTDFTLTIDSLQAEDVAVYYCKQSYTLYTFGGGTKVEIK",33.6
9,"h77A-1.21 (antibody, V domains shown, captured by anti-human Fc) VH: QIQLVQSGDEVKKPGASVKVSCKASGYTFTNYGMNWVRQAPGQGLEWMGWINTYTGEPTYADDFKGRFTFTTDTSTSTAYMELRSLRSDDTAVYFCARYDHAMDYWGQGTLVTVSS VL: EIVLTQSPDSLAVSLGERATINCKSSQSLLNSGTRKNYLAWYQQKAGQSPKLLIYWTSTRESGVPDRFSGSGSGTDFTLSIDSLQAEDVAVYYCKQSYTLYTFGGGTKVEIK",10
10,"h77A-1.20 (antibody, V domains shown, captured by anti-human Fc) VH: QIQLVQSGDEVKKPGASVKVSCKASGYTFTNYGMNWVRQAPGQGLEWMGWINTYTGEPTYSDDFKGRFTFTTDTSTSTAYMELRSLRSDDTAVYFCARYDHAMDYWGQGTLVTVSS VL: EIVLTQSPDSLAVSLGERATINCKSSQSLLNSGTRKNYLAWYQQKAGQSPKLLIYWTSTRESGVPDRFSGSGSGTDFTLTIDSLQAEDVAVYYCKQSYTLYTFGGGTKVEIK",12.1
11,"h77A-1.3 (antibody, V domains shown, captured by anti-human Fc) VH: QIQLVQSGAEVKKPGASVKVSCKASGYTFTNYGMNWVRQAPGQGLEWMGWINTYTGEPTYADDFKGRFTFTTDTSTSTAYMELRSLRSDDTAVYFCARYDHRMDYWGQGTLVTVSS VL: EIVLTQSPDSLAVSLGERATINCKSSQSLLNSGTRKNYLAWYQQKAGQSPKLLIYWTSTRESGVPDRFSGSGSGTDFTLTIDSLQAEDVAVYYCKQSYTLYTFGGGTKVEIK",28.7
12,"h77A-1.23 (antibody, V domains shown, captured by anti-human Fc) VH: QIQLVQSGAEVKKPGASVKVSCKASGYTFTNYGMNWVRQAPGQGLEWMGWINTYTGEPTYADDFKGRFTFTTDTSTSTAYMELRSLRSDDTAVYFCARYDHAMDYWGQGTLVTVSS VL: EIVLTQSPDSLAVSLGERATINCKSSQSLLNSGTRKNYLSWYQQKAGQSPKLLIYWTSTRESGVPDRFSGSGSGTDFTLTIDSLQAEDVAVYYCKQSYSLYTFGGGTKVEIK",24
13,"h77A-1.15 (antibody, V domains shown, captured by anti-human Fc) VH: QIQLVQSGAEVKKPGASVKVSCKASGYTFTNYGMNWVRQAPGQGLEWMGWINTYTGEPTYADDFKGRFTFTTDTSTSTAYMELRSLRSDDTAVYFCARYDHVMDYWGQGTLVTVSS VL: EIVLTQSPDSLAVSLGERATINCKSSQSLLNSGTRKNYLAWYQQKAGQSPKLLIYWTSTRESGVPDRFSGSGSGTDFTLTIDSLQAEDVAVYYCKQSYTLYTFGGGTKVEIK",33

# Further lines, results first:
row,% Diss [%],Binder
1,4.38,"h77A-1.35 (antibody, V domains shown, captured by anti-human Fc) VH: QIQLVQSGTEVKKPGASVKVSCKASGYTFTNYGMNWVRQAPGQGLEWMGWINTYTGEPTYADDFKGRFTFTTDTSTSTAYMELRSLRSDDTAVYFCARYDHHMDYWGQGTLVTVSS VL: EIVLTQSPDSLTVSLGERATINCKSSQSLLNSGTRKNYLAWYQQKAGQSPKLLIYWTSTRESGVPDRFSGSGSGTDFTLTIDSLQAEDVAVYYCKQSYTLYTFGGGTKVEIK"
2,11.8,"h77A-1.26 (antibody, V domains shown, captured by anti-human Fc) VH: QIQLVQSGAEVKKPGASVKVSCKASGYTFTNYGMNWVRQAPGQGLEWMGWINTYTGEPTYADDFKGRFTFTTDTSTRTAYMELRSLRSDDTAVYFCTRYDHAMDYWGQGTLVTVSS VL: EIVLTQSPDSLAVSLGERATINCKSSQSLLNSGTRKNYLAWYQQKAGQSPKLLIYWTSTRESGVPDRFSGSGSGTDFTLTIDSLQAEDVAVYYCKQSYTLYTFGGGTKVEIK"
3,20.6,"h77A-1.33 (antibody, V domains shown, captured by anti-human Fc) VH: QIQLVQSGAEVKKPGASVKVSCKASGYTFTKYGMNWVRQAPGQGLEWMGWINTYTGEPTYADDFKGRFTFTTDTSTSTAYMELRSLRSDDTAVYFCARYDHNMDYWGQGTLVTVSS VL: EIVLTQSPDSLAVSLGERATINCKSSQSLLNSGTRKNYLAWYQQKAGQSPKLLIYWTSTRESGVPDRFSGSGSGTDFTLTIDSLQAEDVAVYYCKQSYTLYTFGGGTKVEIK"
4,23.2,"h77A-1.25 (antibody, V domains shown, captured by anti-human Fc) VH: QIQLVQSGAEVKKPGASVKVSCKASGYTFTNYGMNWVRQAPGQGLEWMGWINTYTGEPTYADDFKGRFTFTTDTSTSTAYMELRSLRSDDTAVYFCARYDHFMDYWGQGTLVTVSS VL: EIVLTQSPDSLAVSLGERATINCKSSQSLLNSGTRKNYLAWYQQKAGQSPKLLIYWTSTRESGVPDRFSGSGSGTDFTLTIDSLQAEDVAIYYCKQSYTLYTFGGGTKVEIK"
5,-3.52,"h77A-1.31 (antibody, V domains shown, captured by anti-human Fc) VH: QIQLVQSGAEVKKPGASVKVSCKASGYTFTNYGMNWVRQAPGQGLEWMGWINTYTGEPTYADDFKGRFTFTTDTSTSTAYMELRSLRSDDTAVYFCARYDHPMDYWGQGTLVTVSS VL: EIVLTQSPDSLAVSLGERATINCKSSQSLLNSGTRKNYLAWYQQKAGQSPKLLIYWTSTRESGVPDRFSGSGSGTDFTLTIDRLQAEDVAVYYCKQSYTLYTFGGGTKVEIK"
6,6.96,"h77A-1.36 (antibody, V domains shown, captured by anti-human Fc) VH: QIQLVQSGAEVKKPGASVKVSCKASGYTFTNYGMNWVRQAPGQGLEWMGWINTYTGEPTYADDFKGRFTFTTDTSTTTAYMELRSLRSDDTAVYFCARYDHHMDYWGQGTLVTVSS VL: EIVLTQSPDSLAVSLGERATINCKSSQSLFNSGTRKNYLAWYQQKAGQSPKLLIYWTSTRESGVPDRFSGSGSGTDFTLTIDSLQAEDVAVYYCKQSYTLYTFGGGTKVEIK"
7,28.3,"h77A-1.29 (antibody, V domains shown, captured by anti-human Fc) VH: QIQLVQSGAEVKKPGASVKVSCKASGYTFTNYGMNWVRQAPGQGLEWMGWINTYTGEPTYADDFKGRFTFTTDTSTSTAYMELRSLRSDDTAVYFCARYDHFMDYWGQGTLVTVSS VL: EIVLTQSPDSLAVSLGERATINCKSSQSLFNSGTRKNYLAWYQQKAGQSPKLLIYWTSTRESGVPDRFSGSGSGTDFTLTIDSLQAEDVAVYYCKQSYTLYTFGGGTKVEIK"
8,18.8,"h77A-1.28 (antibody, V domains shown, captured by anti-human Fc) VH: QIQLVQSGTEVKKPGASVKVSCKASGYTFTNYGMNWVRQAPGQGLEWMGWINTYTGEPTYADDFKGRFTFTTDTSTSTAYMELRSLRSDDTAVYFCARYDHTMDYWGQGTLVTVSS VL: EIVLTQSPDSLAVSLGERATINCKSSQSLLNSGTRKNYLAWYQQKAGQSPKLLIYWTSTRESGVPDRFSGSGSGTDFTLTIDSLQAEDVAVYYCKQSYTLYTFGGGTKVEIK"
